Measurements as given in publication PMC4490372, “Architecture of TFIIIC and its role in RNA polymerase III pre-initiation complex assembly” (Nature Communications, 2015).

Legend:
[1] = biological target: T1, τ138 (Tfc3), τB subunit of endogenous S. cerevisiae TFIIIC (S. cerevisiae, UniProt P34111 1-1160); assay: cross-linking; XL-MS: purified endogenous TFIIIC (30 μg, 1 μg/μl) cross-linked with H12/D12 DSS to 2 mM, 40 min at 37 °C; ld-score >25; conditions: both partners purified
T1 construct: τ138 (Tfc3), subunit of S. cerevisiae TFIIIC, endogenous subunit in the purified complex; source: endogenous, purified from S. cerevisiae strain SC2342 as part of TFIIIC (TAP tag on τ60)
T1 sequence (looked up): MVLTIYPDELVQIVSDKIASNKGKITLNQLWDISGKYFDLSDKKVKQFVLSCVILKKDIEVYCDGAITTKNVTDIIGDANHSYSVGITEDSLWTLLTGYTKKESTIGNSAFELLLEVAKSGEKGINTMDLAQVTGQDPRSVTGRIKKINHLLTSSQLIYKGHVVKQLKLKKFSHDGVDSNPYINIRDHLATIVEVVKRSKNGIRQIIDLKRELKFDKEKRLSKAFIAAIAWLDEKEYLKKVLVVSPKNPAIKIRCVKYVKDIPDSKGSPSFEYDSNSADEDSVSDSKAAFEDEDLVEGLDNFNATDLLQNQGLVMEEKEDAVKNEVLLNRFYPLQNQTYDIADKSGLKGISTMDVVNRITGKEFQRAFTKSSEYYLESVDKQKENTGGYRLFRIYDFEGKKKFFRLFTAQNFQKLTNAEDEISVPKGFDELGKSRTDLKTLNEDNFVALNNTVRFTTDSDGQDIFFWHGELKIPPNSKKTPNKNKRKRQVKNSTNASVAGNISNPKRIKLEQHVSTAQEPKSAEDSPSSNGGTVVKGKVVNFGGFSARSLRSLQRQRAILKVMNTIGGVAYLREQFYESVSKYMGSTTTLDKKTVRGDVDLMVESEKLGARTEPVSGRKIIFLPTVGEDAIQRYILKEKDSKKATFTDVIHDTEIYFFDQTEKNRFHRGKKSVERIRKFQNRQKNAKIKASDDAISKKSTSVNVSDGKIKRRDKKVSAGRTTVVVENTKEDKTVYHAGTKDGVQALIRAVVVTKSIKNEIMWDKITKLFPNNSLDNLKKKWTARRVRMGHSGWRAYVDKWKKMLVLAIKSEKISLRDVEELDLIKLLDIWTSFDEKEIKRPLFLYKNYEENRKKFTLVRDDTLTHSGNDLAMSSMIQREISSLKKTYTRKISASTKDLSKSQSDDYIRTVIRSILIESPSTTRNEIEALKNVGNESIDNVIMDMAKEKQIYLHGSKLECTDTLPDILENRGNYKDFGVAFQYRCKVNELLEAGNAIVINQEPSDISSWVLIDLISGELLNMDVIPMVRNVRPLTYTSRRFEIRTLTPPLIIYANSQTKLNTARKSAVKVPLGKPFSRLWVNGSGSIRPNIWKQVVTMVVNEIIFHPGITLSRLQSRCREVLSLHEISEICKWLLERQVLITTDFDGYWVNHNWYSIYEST

[2] = biological target: T2, τ131 (Tfc4), τA subunit of endogenous S. cerevisiae TFIIIC (S. cerevisiae, UniProt P33339 1-1025); assay: as above; conditions: both partners purified
T2 construct: τ131 (Tfc4), subunit of S. cerevisiae TFIIIC, endogenous subunit in the purified complex; Endogenous subunit; source: endogenous, purified from S. cerevisiae strain SC2342 as part of TFIIIC (TAP tag on τ60)
T2 sequence (looked up): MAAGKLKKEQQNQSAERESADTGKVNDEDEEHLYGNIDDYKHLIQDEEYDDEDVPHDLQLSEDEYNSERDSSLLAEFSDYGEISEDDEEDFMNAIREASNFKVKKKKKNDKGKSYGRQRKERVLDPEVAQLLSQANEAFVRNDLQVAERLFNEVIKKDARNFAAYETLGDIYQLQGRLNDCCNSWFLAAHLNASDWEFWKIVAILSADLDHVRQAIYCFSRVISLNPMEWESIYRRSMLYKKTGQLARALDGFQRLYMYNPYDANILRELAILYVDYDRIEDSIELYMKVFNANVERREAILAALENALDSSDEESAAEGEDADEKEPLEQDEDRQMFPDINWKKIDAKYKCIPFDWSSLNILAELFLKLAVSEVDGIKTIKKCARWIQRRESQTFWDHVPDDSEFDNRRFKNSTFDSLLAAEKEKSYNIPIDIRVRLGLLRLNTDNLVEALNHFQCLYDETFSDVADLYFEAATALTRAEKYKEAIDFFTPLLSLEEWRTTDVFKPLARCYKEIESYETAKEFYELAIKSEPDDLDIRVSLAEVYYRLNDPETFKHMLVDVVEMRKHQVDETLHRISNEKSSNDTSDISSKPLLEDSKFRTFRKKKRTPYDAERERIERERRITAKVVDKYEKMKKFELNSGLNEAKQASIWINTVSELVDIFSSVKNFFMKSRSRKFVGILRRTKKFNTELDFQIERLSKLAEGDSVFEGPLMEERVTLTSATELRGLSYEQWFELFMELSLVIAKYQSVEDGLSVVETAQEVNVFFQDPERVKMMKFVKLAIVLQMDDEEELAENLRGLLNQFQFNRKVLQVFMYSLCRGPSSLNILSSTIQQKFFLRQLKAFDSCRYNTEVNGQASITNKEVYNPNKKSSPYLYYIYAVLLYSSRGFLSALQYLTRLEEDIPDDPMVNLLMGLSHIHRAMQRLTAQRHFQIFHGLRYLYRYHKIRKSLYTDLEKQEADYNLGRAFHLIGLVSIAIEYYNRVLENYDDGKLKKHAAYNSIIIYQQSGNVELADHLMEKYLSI

binding result [1]: binds | binding result [2]: binds
B1: τ95 (Tfc1), τA subunit of endogenous S. cerevisiae TFIIIC (natural protein, UniProt P32367 1-649, looked up)
chain: MPVEEPLATLSSIPDSSADQAPPLIADEFTLDLPRIPSLELPLNVSTKHSSIQKAIKMCGGIEKVKEAFKEHGPIESQHGLQLYLNDDTDSDGSKSYFNEHPVIGKRVPFRDESVILKVTMPKGTLSKNNNSVKDSIKSLKDSNKLRVTPVSIVDNTIKFREMSDFQIKLDNVPSAREFKSSFGSLEWNNFKSFVNSVPDNDSQPQENIGNLILDRSVKIPSTDFQLPPPPKLSMVGFPLLYKYKANPFAKKKKNGVTEVKGTYIKNYQLFVHDLSDKTVIPSQAHEQVLYDFEVAKKTKVYPGTKSDSKFYESLEECLKILRELFARRPIWVKRHLDGIVPKKIHHTMKIALALISYRFTMGPWRNTYIKFGIDPRSSVEYAQYQTEYFKIERKLLSSPIVKKNVPKPPPLVFESDTPGGIDSRFKFDGKRIPWYLMLQIDLLIGEPNIAEVFHNVEYLDKANELTGWFKELDLVKIRRIVKYELGCMVQGNYEYNKYKLKYFKTMLFVKESMVPENKNSEEGMGVNTNKDADGDINMDAGSQMSSNAIEEDKGIAAGDDFDDNGAITEEPDDAALENEEMDTDQNLKVPASIDDDVDDVDADEEEQESFDVKTASFQDIINKIAKLDPKTAETMKSELKGFVDEVDL
notes: τ95 (Tfc1), subunit of S. cerevisiae TFIIIC, endogenous subunit in the purified complex; source: endogenous, purified from S. cerevisiae strain SC2342 as part of TFIIIC (TAP tag on τ60)
